# Laboratory results: article doi:10.1101/2025.05.28.656676 (bioRxiv, 2025)
# B1: MBP-tagged glucocorticoid receptor ligand-binding domain (MBP-GR LBD, F602S, 520-777) (domain or fragment, UniProt P04150 520-777, looked up)
# chain: IVPATLPQLTPTLVSLLEVIEPEVLYAGYDSSVPDSTWRIMTTLNMLGGRQVIAAVKWAKAIPGFRNLHLDDQMTLLQYSWMSLMAFALGWRSYRQSSANLLCFAPDLIINEQRMTLPCMYDQCKHMLYVSSELHRLQVSYEEYLCMKTLLLLSSVPKDGLKSQELFDEIRMTYIKELGKAIVKREGNSSQNWQRFYQLTKLLDSMHEVVENLLNYCFQTFLDKTMSIEFPEMLAEIITNQIPKYSNGNIKKLLFHQK
# Tests used:
# Hsp90a (wild-type Hsp90) [1] = biological target: T1, Hsp90a (wild-type Hsp90) (human, UniProt P07900 1-732); assay: cryo-EM structure
# [2] = biological target: B1; assay: SEC
# D93N Hsp90 = D93N Hsp90 (human, UniProt P07900 1-732, D93N); assay: pull-down
# Hop = Hop (human, UniProt P31948 1-543); assay: pull-down
# Hsp90a (wild-type Hsp90) [3] = biological target: T1, Hsp90a (wild-type Hsp90); assay: SEC
binding result (Hsp90a (wild-type Hsp90) [1]),binding result [2],binding result (D93N Hsp90),binding result (Hop),binding result (Hsp90a (wild-type Hsp90) [3]),Binder
binds,–,–,–,–,"CHIP E3 ubiquitin ligase (enzyme, human, UniProt Q9UNE7 1-303, looked up) MKGKEEKEGGARLGAGGGSPEKSPSAQELKEQGNRLFVGRKYPEAAACYGRAITRNPLVAVYYTNRALCYLKMQQHEQALADCRRALELDGQSVKAHFFLGQCQLEMESYDEAIANLQRAYSLAKEQRLNFGDDIPSALRIAKKKRWNSIEERRIHQESELHSYLSRLIAAERERELEECQRNHEGDEDDSHVRAQQACIEAKHDKYMADMDELFSQVDEKRKKRDIPDYLCGKISFELMREPCITPSGITYDRKDIEEHLQRVGHFDPVTRSPLTQEQLIPNLAMKEVIDAFISENGWVEDY"
binds,binds,–,–,–,"p23 (natural protein, human) MQPASAKWYDRRDYVFIEFCVEDSKDVNVNFEKSKLTFSCLGGSDNFKHLNEIDLFHCIDPNDSKHKRTDRSILCCLRKGESGQSWPRLTKERAKLNWLSVDFNNWKDWEDDSDEDMSNFDRFSEMMNNMGGDEDVDLPEVDGADDDSQDSDDEKMPDLE"
–,–,binds,binds,binds,B1
binds,–,–,–,–,"MBP-tagged glucocorticoid receptor DNA binding domain, hinge and ligand binding domain (MBP-GR DBD-LBD, 418-777, F602S) (domain or fragment, UniProt P04150 418-777, looked up) PKLCLVCSDEASGCHYGVLTCGSCKVFFKRAVEGQHNYLCAGRNDCIIDKIRRKNCPACRYRKCLQAGMNLEARKTKKKIKGIQQATTGVSQETSENPGNKTIVPATLPQLTPTLVSLLEVIEPEVLYAGYDSSVPDSTWRIMTTLNMLGGRQVIAAVKWAKAIPGFRNLHLDDQMTLLQYSWMSLMAFALGWRSYRQSSANLLCFAPDLIINEQRMTLPCMYDQCKHMLYVSSELHRLQVSYEEYLCMKTLLLLSSVPKDGLKSQELFDEIRMTYIKELGKAIVKREGNSSQNWQRFYQLTKLLDSMHEVVENLLNYCFQTFLDKTMSIEFPEMLAEIITNQIPKYSNGNIKKLLFHQK"
